# Experiment: soluble on expression in E. coli; label from the status in PepcDB or PDB records
row,Sequence,soluble on expression in E. coli
1,GPGSMLYRTAVPVPADALVQRNLEFTRTAWKAGLRPDQRDANQLRVVEIDFPLLSRDVVQVKCGNTVATATISCDLVEPSPYRPKHGFFEVHARQLLNERDPLDQSKEIKRISMYLTRLLSGSVLETESLCVIPGRRVWSIDAEVIIVNNDGNAQDVAQWAVMTALQHVRRPELTIRGEDVIVHPPHERDPVPLPLHHIPLSFTFAVCANPQEVQLAVRAATLRSAHAPRAGASSGANADEGDGEAEELGWSSDALQVVVDPSLEEATAAACTVSVALNGEGHVCSLEKADGCYVSIAYLEQCMEIATKLTQALLSQMKESMEAHNAKRTEAVRSQFLWAQQRHGIQAIATPGDEGEHARKSAKTEK,soluble
2,GPGSMNFVPLYRSILKGIHTAKQHPYHLQDIRFILSYPLVKPVYYATKPNSELKQLEPLQGIDTPLLVRTCLEDLRRAFMSVPSKDMSVAQQFVYMRELGWLKCRLENIASESTDAILKEARVVASEVTDDDFLDDQIIVRQGRPNNKELQCVQTGNNGSEMGDCGYGVASAGAIGLRYEMFILQNVAPLPLVKEFLSSFSQNTEAAAAAATSNQKLQEFARRYVPRTVVCQNEDLTLTITVNAFDAALTRKSTEENNPFARVHRYFMIRFDLSPSDPLVLGVDVVNSYFLRLDAGSAELVEDIGYLHAADVWKLSQELRVKGSGSSTDSDDTKDNGCVDGSVSSKEHAAEGNVNCMDHNEHEHNPTSHFELSFINPSDGPTIMKGQLYYTLRTKSSASASKMNVGVISFGHILLFNDE,not soluble
3,GPGSMPADKSYALKQVQTFGKKKTAIAVATVTKAAQCNIKVNGVPLQQILPDTLRAKIMEAITVVGSKYYSRLRIDVAVHGGGQVSQAYAARQAIAKGLIAFFQKYHNEVEKAALKDKFLAYDKFLLIADPRRCEPKKWGRHSARTRFTKSYR,soluble
4,GPGSMPPRRKSECLSSYAVDTTPSFQDEKFIEQLLHFVGANDEVSLLTMTAVALGAECYQVDLGQQIVVDARLDFINFCAKQGYCAAKVVHLLKWLCTFQERVEDGCNTQEMQEEVIAFVTSEVEEEWKWKRALQAEEALWEVQSSSKTSARRGHRAAEKVVEETEAVSTVPKENIYLQREDIGPFSTWLIQGIVQHASLYHYVATHARMVGEPEEFNYFLEVPVSAPPLRNALAPESVPQEPPLAKAQQDVEEQRASELETYKKEYEEAMALEQLRLQTIQNERDMKVFIENEGSMRAVEDTYESLQVDLSKRQRQILERITAAEKALGIFPFVQPQ,not soluble
5,GPGSMPQSAVMNVMVQAAMKAGRSLVRDYGEVQNLQVSLKGPADYVSQADRKAEKIIFNELSKARPKFGFLMEESEEIIGEDSQHRFIVDPLDGTTNFLHGIPFFAVSIALESQGKIVAGVIYNPINDELFTAERGSGAFFNDRRCRVSARRRLEDCVIATGMPHLGRPGHGTYLIELRNVMAEVSGIRRFGTAALDLAYVAAGRTDGFWEDNLQIWDMAAGILMVREAGGFVTDKEGGNDIFRKKNIIAGNEHIRIKLERALKKGI,soluble
6,GPGSMQAARLPTRIATGDGEDAPQTPPVHAPATPAATDEQETDQPQQAVGEATTPADRAGFQPPSAEALATRQSRNSAGAEKMGGGQRLRDHTTAQRRLMQDYRTFQKNMAEGTSSNITALPVDGDFFHWHAVISGPCDTPWEGGLFKLDLIFGDDYPFSPPKVRFRTKDVFHPNVYVDGNICMDTLKSSWQSSLNLEALLISIQSLLSDPNPLSAANGAAARLLTENRSAYDEKIRALVEESLEQSFSMDDDSDDAEVDEEAV,soluble
7,GPGSMQPYGMSTSRTNRRPLVASRGGPNAPQRNYAMVTGPVDPSTSLIRYELPFSPADPKRSVKLRRRFGEPIEESVVDPNVRVVLDSFIPPRAWYDDDGVLWVQHASPKPASRTDTVETHEKLRRRLRETGAKRTGICPIRSLLLAECFLEVIRQVTVECWERGLVLLKIHAERVAAQTAHRELFESRVGYAFRLALKGEKDTSRVQQDLGKLKKRMEELAEEEKTLRQQCDEASARGEEEMLIVGKQHSDEVAAIKKEGILKRNQLEHMISMPSTP,soluble
8,GPGSMQSDFDNVETELRDIEETFTTGRMNAFGSASTQDAFVHELKRIAEIETQVFYRTCALLKSSHTNEHQLVTNMYASAQPPPQSQRSGPATTSPSSNLGDGSFRANSSGLESSMYRGPMNQRSQSSFASTVAGGLSGAPPSNSNIHSSSASRRQSRQGWENVSAGSPFPGVGDGGASSGAAPHIHRSEWGNEDGFADKAFEDVAAHFEELESQFFSLGDYLREISKHVIRLNDMSKQVNNGVNYGANGGVTGAPAAAANANGSSNNTDMLQTVGSMGRQDYPGSFIDPTSIGGGSGYGMDGPHS,soluble

# — the DeepSol protein solubility set
